# Assay results as given in patent publication US20060088535.
# Test system: ApCREB-1 (Aplysia californica)
# Assay: cell_activity
# Details: F9 cells with PKA; 2.13 without PKA; 1.64 with ApCREB-2 plus PKA
sequence,measurement,value
TGACGTCA (double strand) [single CRE palindrome in pGL3-CRE reporter],activity (fold activation),10.5
